Data as given in the supplement of paper PMC7877785.
± gives the uncertainty stated by the source.

Experiment: self-splicing fitness, log relative to wild type (ln ratio); higher = more splicing; Tetrahymena group I intron in knt gene, E. coli kanamycin selection, DiMSum; sequences stand for … in CUCUCU…GGAGGGAAAAGUUAUCAGGCAUGCACCUGGUAGCUAGUCUUUAAACCAAUAGAUUGCAUCGGUUUAAAAGGCAAGACCGUCAAAUUGCGGGAAAGGGGUCAACAGCCGUUCAGUACCAAGUCUCAGGGGAAACUUUGAGAUGGCCUUGCAAAGGGUAUGGUAAUAAGCUGACGGACAUGGUCCUAACCACGCAGCCAAGUCCUAAGUCAACAGAUCUUCUGUUGAUAUGGAUGCAGUUCACAGACUAAAUGUCGGUCGGGGAAGAUGUAUUCUUCUCAUAAGAUAUAGUCGGACCUCUCCUUAAUGGGAGCUAGCGGAUGAAGUGAUGCAACACUGGAGCCGCUGGGAACUAAUUUGUAUGCGAAAGUAUAUUGAUUAGUUUUGGAGUACUCGUGGUCG
Method in brief: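 Fitness was computed with DiMSum as the error-weighted combination of replicate fold changes, kanamycin versus none, each normalised to wild type. The library randomised all eight intron nucleotides of the P1ex region, with the intron placed in the knt kanamycin-resistance gene on pET-22b(+) in E. coli BL21(DE3). Six replicate transformations were grown overnight at 37°C or 30°C on LB agar with or without 25 μg/mL kanamycin, plus 100 μg/mL carbenicillin, 50 μM IPTG and 0.2% rhamnose. Pooled colonies were amplicon-sequenced on an Illumina HiSeq 2500.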

Sequence | self-splicing fitness (ln) (30 °C) | self-splicing fitness (ln) (37 °C)
UCCAAGCAAUAUUACGUAAU | -1.94 ± 0.11 | -0.725 ± 0.14
CCUUAGCAAUAUUACGGCUU | -3.99 ± 0.37 | -1.99 ± 0.2
CUCGAGCAAUAUUACGGUAU | -2.54 ± 0.14 | -2.62 ± 0.21
ACACAGCAAUAUUACGGUUC | -3.81 ± 0.14 | -2.03 ± 0.12
ACGCAGCAAUAUUACGAGGC | -2.95 ± 0.16 | -2.79 ± 0.3
CGUCAGCAAUAUUACGCUUA | -2.18 ± 0.23 | -1.14 ± 0.17
UUAAAGCAAUAUUACGUCCG | -0.581 ± 0.12 | 0.242 ± 0.15
UACAAGCAAUAUUACGCAAA | -2.24 ± 0.14 | -1.51 ± 0.14
GCAUAGCAAUAUUACGGGUA | -0.992 ± 0.12 | -1.11 ± 0.11
UCAUAGCAAUAUUACGUGCC | -3.48 ± 0.41 | -1.34 ± 0.23
UCGUAGCAAUAUUACGCCCA | -0.576 ± 0.14 | 0.129 ± 0.19
AAGGAGCAAUAUUACGCACG | -1.84 ± 0.43 | -0.01 ± 0.45
CGAAAGCAAUAUUACGUUAA | -2.27 ± 0.15 | -1.42 ± 0.12
CGAUAGCAAUAUUACGCCAA | -2.66 ± 0.25 | -1.87 ± 0.15
AACUAGCAAUAUUACGACCU | -0.168 ± 0.083 | 0.541 ± 0.11
GUUUAGCAAUAUUACGUUGC | -3.73 ± 0.27 | -2.59 ± 0.34
ACUCAGCAAUAUUACGCACU | -0.199 ± 0.064 | 0.205 ± 0.079
CUGGAGCAAUAUUACGAGGG | -2.67 ± 0.24 | -2.08 ± 0.34
AGGUAGCAAUAUUACGGGUG | -3.141 ± 0.021 | -1.99 ± 0.036
GGAGAGCAAUAUUACGACUU | -2.58 ± 0.19 | -0.744 ± 0.16
UAUCAGCAAUAUUACGCAGC | -2.17 ± 0.19 | -1.53 ± 0.18
UAACAGCAAUAUUACGCGAC | -3.97 ± 0.29 | -2.05 ± 0.16
UUGAAGCAAUAUUACGCAUC | -3.54 ± 0.33 | –
AUUAAGCAAUAUUACGAGGC | -3.18 ± 0.39 | -1.99 ± 0.34
UGGGAGCAAUAUUACGACAA | -2.75 ± 0.34 | -0.982 ± 0.3

Sequence | self-splicing fitness (ln) (30 °C) | self-splicing fitness (ln) (37 °C)
CAUCAGCAAUAUUACGCCUA | -1.55 ± 0.1 | -1.03 ± 0.1
CUGGAGCAAUAUUACGCGAG | -3.24 ± 0.23 | -2.47 ± 0.26
AGGGAGCAAUAUUACGUACU | -1.74 ± 0.26 | -0.673 ± 0.35
UGAAAGCAAUAUUACGCGUG | -0.951 ± 0.049 | -0.284 ± 0.064
CUGGAGCAAUAUUACGCAGG | -3.11 ± 0.23 | -2.36 ± 0.2
UGUUAGCAAUAUUACGUUCG | 0.135 ± 0.16 | 0.292 ± 0.16
CGCCAGCAAUAUUACGGCAC | -2.37 ± 0.1 | -1.04 ± 0.097
AAGGAGCAAUAUUACGCUGC | -3.07 ± 0.38 | -2.68 ± 0.26
CGGCAGCAAUAUUACGGACA | -0.835 ± 0.12 | 0.127 ± 0.11
CGAGAGCAAUAUUACGAUGG | -3.15 ± 0.2 | -0.694 ± 0.16
CUUUAGCAAUAUUACGCAGA | – | -2.09 ± 0.3
GUACAGCAAUAUUACGUGAA | -3.94 ± 0.13 | -1.51 ± 0.11
UUUCAGCAAUAUUACGAAGG | -2.18 ± 0.15 | -2.34 ± 0.28
CCAUAGCAAUAUUACGAGCC | -4.57 ± 0.45 | -2.16 ± 0.36
GAAUAGCAAUAUUACGGUUA | -0.656 ± 0.11 | -0.631 ± 0.091
AUCCAGCAAUAUUACGUGCG | -1.65 ± 0.078 | -0.875 ± 0.076
AUGCAGCAAUAUUACGUAGG | -1.72 ± 0.082 | -1.16 ± 0.11
UUGGAGCAAUAUUACGCCAG | -3.07 ± 0.26 | -2.07 ± 0.37
GAUGAGCAAUAUUACGCAAC | -2.76 ± 0.21 | -1.85 ± 0.21
CGUAAGCAAUAUUACGUACU | -0.922 ± 0.098 | -0.936 ± 0.11
UACCAGCAAUAUUACGCGAG | -0.774 ± 0.049 | -0.168 ± 0.061
AUUAAGCAAUAUUACGAAUU | -2.27 ± 0.16 | -1.46 ± 0.21
AUCUAGCAAUAUUACGUCAC | -4.04 ± 0.26 | -2.11 ± 0.2
UCAUAGCAAUAUUACGGCCC | – | -1.11 ± 0.43
CUGGAGCAAUAUUACGGCCU | -2.88 ± 0.38 | -1.85 ± 0.3

Sequence | self-splicing fitness (ln) (30 °C) | self-splicing fitness (ln) (37 °C)
AUAUAGCAAUAUUACGACUC | -0.877 ± 0.15 | -0.341 ± 0.2
GCAUAGCAAUAUUACGUGAG | -0.159 ± 0.069 | -0.351 ± 0.083
UGGCAGCAAUAUUACGGGUA | -0.841 ± 0.11 | 0.0742 ± 0.11
UAGAAGCAAUAUUACGUAUA | -1.58 ± 0.16 | -0.471 ± 0.15
CCACAGCAAUAUUACGAGUG | -1.31 ± 0.057 | 0.0708 ± 0.062
CCUCAGCAAUAUUACGCUUA | -4.1 ± 0.3 | -2.11 ± 0.16
CCGUAGCAAUAUUACGAAUA | -2.99 ± 0.28 | –
CCCCAGCAAUAUUACGAAUG | -4.11 ± 0.21 | -2.3 ± 0.15
CAGUAGCAAUAUUACGGUCU | -3.35 ± 0.15 | -1.89 ± 0.14
AUCCAGCAAUAUUACGGAGC | -3.09 ± 0.21 | -2.2 ± 0.24
GCCCAGCAAUAUUACGUACG | -3.98 ± 0.37 | -1.41 ± 0.18
UGAAAGCAAUAUUACGCGGC | -3.44 ± 0.33 | -2.07 ± 0.24
GUAUAGCAAUAUUACGUAGC | -3.22 ± 0.19 | -1.46 ± 0.14
GUUGAGCAAUAUUACGGCGG | – | -2.66 ± 0.36
UGCGAGCAAUAUUACGUGUC | -4.36 ± 0.33 | -2.01 ± 0.26
CGUUAGCAAUAUUACGUAAG | -0.652 ± 0.1 | -0.0337 ± 0.14
GCCAAGCAAUAUUACGGUAA | -0.713 ± 0.1 | 0.0284 ± 0.1
GUAGAGCAAUAUUACGUCCC | -1.01 ± 0.37 | 0.144 ± 0.41
UAUGAGCAAUAUUACGCGGU | -3.41 ± 0.21 | -2.68 ± 0.3
UCUAAGCAAUAUUACGCAUA | -1.86 ± 0.18 | -2.33 ± 0.25
ACUCAGCAAUAUUACGAAAA | -1.32 ± 0.11 | -1.36 ± 0.16
UGUCAGCAAUAUUACGGUCC | -0.381 ± 0.15 | -0.567 ± 0.19
AUCGAGCAAUAUUACGUUAG | -3.73 ± 0.29 | -0.583 ± 0.21
CGAAAGCAAUAUUACGCGAG | -2.88 ± 0.25 | -2.26 ± 0.22
UCCGAGCAAUAUUACGGAUG | -4.09 ± 0.35 | -1.77 ± 0.2

Sequence | self-splicing fitness (ln) (30 °C) | self-splicing fitness (ln) (37 °C)
ACGUAGCAAUAUUACGCUUG | -1.26 ± 0.083 | -1.28 ± 0.093
UGUGAGCAAUAUUACGGUAC | -3.38 ± 0.28 | -2.3 ± 0.29
UCGGAGCAAUAUUACGAAUA | -2.32 ± 0.32 | -1.27 ± 0.32
CAUCAGCAAUAUUACGUCAA | -3.09 ± 0.15 | -2.38 ± 0.15
CACGAGCAAUAUUACGUUAA | -3.25 ± 0.22 | -2.86 ± 0.22
AGGAAGCAAUAUUACGCUUC | -2.44 ± 0.28 | –
CUCCAGCAAUAUUACGAGCC | -2.73 ± 0.22 | -2.15 ± 0.28
AUGGAGCAAUAUUACGUAGG | -3.11 ± 0.17 | -2.76 ± 0.23
CACGAGCAAUAUUACGCCAU | -2.82 ± 0.27 | -2.55 ± 0.33
UACGAGCAAUAUUACGUGAU | -4.17 ± 0.21 | -2.45 ± 0.2
CAGGAGCAAUAUUACGGCCA | – | 0.122 ± 0.3
GCCAAGCAAUAUUACGAUUA | -2.86 ± 0.17 | -2.57 ± 0.15
GCUCAGCAAUAUUACGGUAC | -0.486 ± 0.13 | -0.709 ± 0.15
GUCAAGCAAUAUUACGUUUU | -2.8 ± 0.11 | -0.976 ± 0.1
ACCGAGCAAUAUUACGAGUG | -2.82 ± 0.11 | -1.49 ± 0.094
CGCCAGCAAUAUUACGCCAG | -0.963 ± 0.12 | -0.172 ± 0.15
UGGAAGCAAUAUUACGUGCC | -2.57 ± 0.27 | -0.372 ± 0.34
UGCCAGCAAUAUUACGUGGA | -3.33 ± 0.18 | -1.71 ± 0.13
ACGCAGCAAUAUUACGUAUC | -2.47 ± 0.2 | -1.18 ± 0.17
GGACAGCAAUAUUACGAACG | -0.686 ± 0.08 | -0.333 ± 0.1
AGCGAGCAAUAUUACGCAAA | -3.01 ± 0.36 | -2.52 ± 0.48
CCUCAGCAAUAUUACGCCAA | -2.26 ± 0.23 | –
